Measured values taken from US9739733B2, “Methods for monitoring tight clot formation” (T2 Biosystems, Inc., priority 2012, dated 2017).

Legend:
[1] = tested on: IIb/IIIa receptor of human platelets; assay: TEG clot strength (MA) of whole blood spiked with abciximab; type: cell-based; settings: patient sample 29494
Procedure: The clotting of a whole blood sample was perturbed using the antithrombotic agent abciximab (ReoPro®). Abciximab is the Fab fragment of a human-murine monoclonal antibody that binds to the IIb/IIIa receptor of human platelets and inhibits platelet aggregation. Abciximab serves to inhibit the retraction of a clot during the clotting process.
Samples containing abciximab were prepared according to the following procedure and referenced in the application and Figures by a number corresponding to the concentration of abciximab in units of μg/mL.
1. Blood was drawn from normal donors into six citrate tubes. Normal donors must not have taken aspirin or any anti-platelet drug in the past two weeks.
2. The six tubes of blood were pooled and mixed gently by inversion eight to ten times. Samples were used within two hours of collection.
3. A abciximab solution (10 mg/5 mL) was diluted at a ratio of 1:4 using saline as a diluent to form “solution 1.”
4. The blood was spiked with solution 1 and saline according to Table 5
5. The samples were allowed to sit for at least five minutes prior to running any sample in a T2reader or Bruker minispec.
In a second experiment, five aliquots of patient sample 29494 were prepared with different concentrations (0, 2, 4, 8, and 0 μg/mL) of abciximab prior to initiation of the clotting process. The T2 relaxations times for the samples were measured in series, with each set of measurements lasting approximately 50 min. The first sample tested and the final sample tested contained no added abciximab. The collected T2 decay curves were processed using Inverse Laplace Transforms, as described in Example 18. […] The difference in the curve shape between the first sample run and the final sample run, both of which contained no added abciximab, may be evidence of an effect of sample age on the T2 time distribution. The corresponding TEG-determined MA values for these samples was 60.7, 61.4, 30.4, and 22.0, respectively.

[2] = tested on: platelet activity in whole blood; assay: T2 relaxation spectra / 3D plots of clotting whole blood spiked with abciximab; type: cell-based, human
Procedure: T2 relaxation rate data was collected from CK blood samples drawn from healthy patients. For each sample, a series of T2 decay curves were measured over a period of 50 minutes. The decay curves were each processed using an Inverse Laplace Transform (ILT CONTIN) to provide an array of curves showing T2 intensity as a function of T2 time. […] FIG. 20 illustrates the 3D data sets for patient samples 29328 and 29350 collected on a Bruker minispec. […] At a time between 5 minutes and 30 minutes, the single water population diverged into two significant water populations. These two water populations correspond to the two components of the clot, i.e., the retracted clot and the serum surrounding the retracted clot. […] For some samples these two peaks were not entirely resolved. The correlation between the water populations and the components of the clotted sample was confirmed by separating the retracted clot from the surrounding serum and separately measuring the T2 data for these two components.
In a first experiment, four aliquots of patient sample 29488 were prepared with different concentrations of abciximab (0, 2, 4, and 8 μg/mL) prior to initiation of the clotting process. The T2 relaxation times for the four samples were measuring over the course of clot formation and the corresponding 3D plots were determined using the technique described in Example 13. […] This physical change is evidenced and quantified in the corresponding 3D plots (FIG. 21), showing fast exchange of water within the uniform sample at the highest concentration of abciximab.
In a second experiment, five aliquots of patient sample 29494 were prepared with different concentrations (0, 2, 4, 8, and 0 μg/mL) of abciximab prior to initiation of the clotting process. The T2 relaxations times for the samples were measured in series, with each set of measurements lasting approximately 50 min. […] The corresponding TEG-determined MA values for these samples was 60.7, 61.4, 30.4, and 22.0, respectively.

whole blood clot [3] = assay: T2Coagulation / TEG LY30 fibrinolysis in healthy patient blood; type: cell-based, human; settings: kaolin runs
Procedure: Five different healthy patient samples were used to test whether T2Coagulation was sensitive to fibrinolysis. Addition of tissue plasminogen activator (TPA) was used to simulate fibrinolysis by adding it at two levels to healthy patient blood. TPA cleaves fibrin as it forms. It was observed that fibrinolysis can be detected within 10 minutes on T2Coagulation, which is less than half the time required for detection on TEG. For all five patients there was a clear difference between healthy and fibrinolytic samples.
There are several potential features that can be used for this correlation. Three that were investigated were the difference between (i) the minimum and maximum T2B values (FIG. 13), (ii) the average of the T2B values over the final 25 minutes of the T2B curves, and (iii) the T2B values at 10 minutes. All had correlations with R^2 values between 0.72 and 0.79. The correlation plots show a higher sensitivity of T2Coagulation for fibrinolysis than TEG. This can be seen by the groupings for the different levels of fibrinolysis in FIG. 13. The healthy patient samples are circled with the solid line. […] The T2Coagulation T2B term can be detected in as little as 10 minutes, which is much faster than the TEG LY30 term can be detected, indicating the utility of the T2Coagulation signal for more rapid measurement of fibrinolysis.

whole blood clot [4] = assay: T2MR whole blood fibrinolysis with spiked TPA; type: cell-based, human; settings: 100 U/mL TPA, blood from a healthy donor
Procedure: The T2MR surface is also sensitive to whole blood fibrinolysis. To assess this, healthy donor samples were spiked with tissue plasminogen activator (TPA).
TPA was added at 100 U/mL to blood from a healthy donor. In the absence of TPA (see FIG. 27a) two stable peaks form at the expected clotting time. […] Both the instability and the distance between the final T2 peaks indicate sensitivity to fibrinolysis induced by the presence of TPA.
The T2MR effect on fibrinolysis was expressed in AU values (arbitrary units; see FIG. 27c) obtained by calculating the difference between the maximum and minimum T2 value observed for the clot signal (or T2B) in the T2 time curve.
Fibrinolysis was monitored by T2 magnetic resonance (T2MR) in five patient blood samples with and without the addition of TPA (100 U/mL) (FIG. 27c). […] All other samples required addition of TPA to induce fibrinolysis, as confirmed by the reference method.

B1: abciximab (antibody, chains of the INN, looked up, V domains shown)
VH: EVQLQQSGTVLARPGASVKMSCEASGYTFTNYWMHWVKQRPGQGLEWIGAIYPGNSDTSYIQKFKGKAKLTAVTSTTSVYMELSSLTNEDSAVYYCTLYDGYYVFAYWGQGTLVTVSA
VL: EIVLTQSPVTLSVTPGDSVSLSCRASRDISNNLHWFQQTSHESPRLLIKYASQSMSGIPSRFSGSGSGTDFTLSINSVETEDFGMYFCQQTNSWPYTFGGGTKLEIK
modifications: Fab
[1]; abciximab 2 μg/mL
  TEG-determined MA: 61.4
[1]; abciximab 4 μg/mL
  TEG-determined MA: 30.4
[1]; abciximab 8 μg/mL
  TEG-determined MA: 22.0
[2]; 8 μg/mL Reopro®, T2reader
  clot associated and serum associated T2 signal: reduces the signal intensity of the clot associated signal and shifts the serum associated signal to lower T2 values
[2]; at 0.1 minutes, abciximab 2, 4, 8 μg/mL, patient sample 29494
  distribution of T2 signals within the initial water population: narrower distribution of T2 signals
[2]; highest concentration of abciximab (8 μg/mL), patient sample 29488
  retracted clot and serum water populations in 3D plot: no longer two phases visible within the clot

B2: Cathflo®: recombinant alteplase manufactured by Genentech (protein, UniProt P00750 36-562, looked up)
Tissue-type plasminogen …: SYQVICRDEKTQMIYQQHQSWLRPVLRSNRVEYCWCNSGRAQCHSVPVKSCSEPRCFNGGTCQQALYFSDFVCQCPEGFAGKCCEIDTRATCYEDQGISYRGTWSTAESGAECTNWNSSALAQKPYSGRRPDAIRLGLGNHNYCRNPDRDSKPWCYVFKAGKYSSEFCSTPACSEGNSDCYFGNGSAYRGTHSLTESGASCLPWNSMILIGKVYTAQNPSAQALGLGKHNYCRNPDGDAKPWCHVLKNRRLTWEYCDVPSCSTCGLRQYSQPQFRIKGGLFADIASHPWQAAIFAKHRRSPGERFLCGGILISSCWILSAAHCFQERFPPHHLTVILGRTYRVVPGEEEQKFEVEKYIVHKEFDDDTYDNDIALLQLKSDSSRCAQESSVVRTVCLPPADLQLPDWTECELSGYGKHEALSPFYSERLKEAHVRLYPSSRCTSQHLLNRTVTDNMLCAGDTRSGGPQANLHDACQGDSGGPLVCLNDGRMTLVGIISWGLGCGQKDVPGVYTKVTNYLDWIRDNMRP
modifications: alteplase
notes: recombinant alteplase manufactured by Genentech
Whole blood clot [3]; 60 ng/mL
  degree of fibrinolysis: partially fibrinolytic
Whole blood clot [3]; 118 ng/mL
  degree of fibrinolysis: fully fibrinolytic

B3: TPA: tissue plasminogen activator (protein, UniProt P00750 36-562, looked up)
Tissue-type plasminogen …: SYQVICRDEKTQMIYQQHQSWLRPVLRSNRVEYCWCNSGRAQCHSVPVKSCSEPRCFNGGTCQQALYFSDFVCQCPEGFAGKCCEIDTRATCYEDQGISYRGTWSTAESGAECTNWNSSALAQKPYSGRRPDAIRLGLGNHNYCRNPDRDSKPWCYVFKAGKYSSEFCSTPACSEGNSDCYFGNGSAYRGTHSLTESGASCLPWNSMILIGKVYTAQNPSAQALGLGKHNYCRNPDGDAKPWCHVLKNRRLTWEYCDVPSCSTCGLRQYSQPQFRIKGGLFADIASHPWQAAIFAKHRRSPGERFLCGGILISSCWILSAAHCFQERFPPHHLTVILGRTYRVVPGEEEQKFEVEKYIVHKEFDDDTYDNDIALLQLKSDSSRCAQESSVVRTVCLPPADLQLPDWTECELSGYGKHEALSPFYSERLKEAHVRLYPSSRCTSQHLLNRTVTDNMLCAGDTRSGGPQANLHDACQGDSGGPLVCLNDGRMTLVGIISWGLGCGQKDVPGVYTKVTNYLDWIRDNMRP
Whole blood clot [4]
  clot stability (T2MR peaks): unstable after 20-30 minutes
